These results are taken from paper PMC2805098.

Substrate in data set [1]: Nc1nc2c(c(=O)[nH]1)N1CN(c3ccc(C(=O)N[C@@H](CCC(=O)O)C(=O)O)cc3)C[C@H]1CN2
The experiment in a line: NADH-CH2-H4folate oxidoreductase assay, steady-state. The format is biochemical, Escherichia coli. As to conditions: other: 1000 μM NADH, fit to eq 6, anaerobic, 25 °C, pH 7.2.

Substrate in data set [2]: Nc1nc2c(c(=O)[nH]1)N1CN(c3ccc(C(=O)N[C@@H](CCC(=O)O)C(=O)O)cc3)C[C@H]1CN2
As to the kind of experiment: purified protein, by the assay type. As to conditions: other: 500 μM NADH, anaerobic, 25 °C, pH 7.2.

B1: Phe223Leu MTHFR (Escherichia coli K-12; F223L) (protein)
chain: MSFFHASQRDALNQSLAEVQGQINVSFEFFPPRTSEMEQTLWNSIDRLSSLKPKFVSVTYGANSGERDRTHSIIKGIKDRTGLEAAPHLTCIDATPDELRTIARDYWNNGIRHIVALRGDLPPGSGKPEMYASDLVTLLKEVADFDISVAAYPEVHPEAKSAQADLLNLKRKVDAGANRAITQFFFDVESYLRFRDRCVSAGIDVEIIPGILPVSNFKQAKKLADMTNVRIPAWMAQMFDGLDDDAETRKLVGANIAMDMVKILSREGVKDFHFYTLNRAEMSYAICHTLGVRPGL
As usually defined, the Km is the substrate concentration at which the rate is half of its maximum. As for B1, the Km in data set [1] is 8 ± 2 µM.

B2: Phe223Ala MTHFR (Escherichia coli K-12; F223A) (protein)
chain: MSFFHASQRDALNQSLAEVQGQINVSFEFFPPRTSEMEQTLWNSIDRLSSLKPKFVSVTYGANSGERDRTHSIIKGIKDRTGLEAAPHLTCIDATPDELRTIARDYWNNGIRHIVALRGDLPPGSGKPEMYASDLVTLLKEVADFDISVAAYPEVHPEAKSAQADLLNLKRKVDAGANRAITQFFFDVESYLRFRDRCVSAGIDVEIIPGILPVSNFKQAKKAADMTNVRIPAWMAQMFDGLDDDAETRKLVGANIAMDMVKILSREGVKDFHFYTLNRAEMSYAICHTLGVRPGL
Take B2: in data set [2], the Km amounted to 93 ± 16 µM.
